The target in this experiment is T1, protein A (immobilized on a protein A column) (UniProt P38507 37-327).
T1 construct: Other paragraphs mention recombinant protein A on agarose and ProSep-vA-Ultra resin; also called protein A resin
The experiment is described as follows: protein A column equilibrated with 20 mM TRIS pH 8, after papain digestion. The procedure: Purified, intact anti-S1P IgG was digested with activated papain (incubated 10 mg/ml papain in 5.5 mM cysteine-HCL, 1 mM EDTA, 70 μM 2-mercaptoethanol for 0.5 hours at 37° C.) in digestion buffer (100:1 LT1009:papain in 50 mM sodium phosphate pH 7.2, 2 mM EDTA). After 2 hours at 37° C., the protease reaction was quenched with 50 mM iodoacetamide, dialyzed against 20 mM TRIS pH 9, and loaded onto 2×5 ml HiTrap Q columns. The bound protein was eluted with a linear gradient of 20 mM TRIS pH 8, 0.5 M NaCl and collected in 4 ml fractions. The fractions containing the anti-S1P Fab fragment were pooled and loaded onto a protein A column equilibrated with 20 mM TRIS pH 8. The intact antibody and the Fc fragment bound to the resin, while the Fab fragment was present in the flow through fraction. The Fab fragment was concentrated using a centricon-YM30 centrifugal concentrator (Millipore, Cat No 4209), dialyzed against 25 mM HEPES pH 7, and stored at 4° C.

One molecule from US20100292443A1 (published 2010) can be followed below.

B1: LT1009 Fab fragment (anti-S1P Fab fragment, from papain digestion) (Fab)
heavy: EVQLVQSGAEVKKPGESLKISCQSFGYIFIDHTIHWMRQMPGQGLEWMGAISPRHDITKYNEMFRGQVTISADKSSSTAYLQWSSLKASDTAMYFCARGGFYGSTIWFDFWGQGTMVTVSSASTKGPSVFPLAPSSKSTSGGTAALGCLVKDYFPEPVTVSWNSGALTSGVHTFPAVLQSSGLYSLSSVVTVPSSSLGTQTYICNVNHKPSNTKVDKRVEPKSCDKTH
light: ETTVTQSPSFLSASVGDRVTITCITTTDIDDDMNWFQQEPGKAPKLLISEGNILRPGVPSRFSSSGYGTDFTLTISKLQPEDFATYYCLQSDNLPFTFGQGTKLEIKRTVAAPSVFIFPPSDEQLKSGTASVVCLLNNFYPREAKVQWKVDNALQSGNSQESVTEQDSKDSTYSLSSTLTLSKADYEKHKVYACEVTHQGLSSPVTKSFNRGEC
Turning to B1, the binding result is “no binding”.
